The series concerns the molecule itself. In words: circular dichroism; STIM1 CC3 alone in 20 mM Bis-Tris, pH 6.0, without TFE, 20 °C; ratio [CD]222/[CD]208 as coiled-coil index.

B1: human STIM1 coiled-coil3 (CC3) fragment (amino acids 388–430) (domain or fragment, UniProt Q13586 388-430, looked up)
chain: NTLFGTFHVAHSSSLDDVDHKILTAKQALSEVTAALRERLHRW
notes: Cloned in pGEX 4T-1 (GST tag with thrombin cleavage site); The NMR sample was 15N/13C labelled; Purification follows Rathner et al. 2018; also called STIM1 CC3; CC3 domain; source: E. coli BL21, purified (protocol of Rathner et al. 2018, slightly modified)
On to B1, for which the binding result is reported as “binds”.

Values taken from article PMC8481183, “Resonance assignment of coiled-coil 3 (CC3) domain of human STIM1” (Biomolecular Nmr Assignments, 2021).
